Tested on: MS2 coat protein
Experiment: apparent KD of MS2 coat protein; designed switch direction (-1 OFF switch, 1 ON switch): 1; higher = weaker reporter binding
Method in brief: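 Each step of the titration lasted 0.8–1.5 h at the lowest concentration and 10–20 min at the highest. The protein, SNAP-549-labelled MS2 coat protein, went from 0.7 or 1.5 nM doubling to 3 µM over RNA switches transcribed on Illumina chips by stalled E. coli RNA polymerase. Normalised cluster fluorescence was curve-fitted, and the per-design median over clusters is given as apparent KD.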

[1] = input ligand: microRNA oligo, concentration not stated
[2] = Eterna round: R95, input ligand: FMN 200 uM
[3] = Eterna round: R95, input ligand: microRNA oligo, concentration not stated
[4] = Eterna round: R95, input ligand: none

| Sequence | apparent KD of MS2 coat protein (input ligand: FMN 200 uM) | apparent KD of MS2 coat protein [1] | apparent KD of MS2 coat protein (input ligand: none) | apparent KD of MS2 coat protein [2] | apparent KD of MS2 coat protein [3] | apparent KD of MS2 coat protein [4] |
| --- | --- | --- | --- | --- | --- | --- |
| AGCCGAGACUGAGGAUAUUUUAAUCUACAUGAGGAUCACCCAUGUAACAACACGUGGUAGUGAUAGAAGAAGGCGGCUCGGCGC [Omei SS(NG)2 Cv1] (Eterna round: R96, puzzle: Same State NG 2) | 0.176 µM | 0.162 µM | 0.386 µM |  |  |  |
| AAAGGAUGAUGUUACAUGAGGAUCACCCAUGUAGUGAUAACUAAGGAUAUCUGUUAAACAAGUUAAGAGAAGGUAGGAUCAUUA [AK SSNG3-V2-8] (Eterna round: R96, puzzle: Same State NG 3) | 0.0428 µM | 0.0356 µM | 0.0608 µM |  |  |  |
| ACUUGCUUUUUGCUCGUAUAUUGUCCGUUACAUGAGGAUCACCCAUGUGUAUAUUAUGUGUUGUUUUUGAUACGUGU [JR_SHM208A_Sub069] (puzzle: Sensor for hsa-mir-208a) |  |  |  | 0.0362 µM | 0.0339 µM | 0.0437 µM |
| UUGAAGAACUAAGGAUAUUGAAUACAUAUGUUUAACAUGAGGAUCACCCAUGUGGGUUGCGGUGUCGAGAAGGUAGAAUAAUAG [Mat - same State NG 2 - JL mod - D96] (Eterna round: R96, puzzle: Same State NG 2) | 0.185 µM | 0.148 µM | 0.272 µM |  |  |  |
| GCCAUCGCAUGAGGAUAUGGCACCGUUUCGGUGCCAGAAGGCAUGUCGUAAGACAUGAGGAUCACCCAUGUAGUUAAGAUGGCA [JL Fiskers NG1ss - 33 mod 8] (Eterna round: R96, puzzle: Same State NG 1) | 0.219 µM | 0.101 µM | 0.407 µM |  |  |  |
| AGCAAAAUAAGCAAGGAUAUGUAAUUUGGCACAUGAGGAUCACCCAUGUCAAUCCAUUUUUUUGAACAGAAGGUGCAUUUUUUUU [ak first solve] (puzzle: Same State 2) |  |  |  |  | 0.0364 µM |  |
| AUAAGGCAAGCUUUUUUCUCGUAGUGUAAACAUGAGGAUCACCCAUGUGCCCACCCUGGACCUUUGGAUCGCAGAAA [Geatxe] (puzzle: Sensor for hsa-mir-208a) |  |  |  | 0.0305 µM | 0.0259 µM | 0.0259 µM |
| AACAAUCUAUCUGAGGAUAUCAUGAAAUAAACAUGAGGAUCACCCAUGUGCAGGAAAACUGCAUAUGAGAAGGCAGAUAGAUUGU [salish99_ss2_r3_058] (puzzle: Same State 2) |  |  |  | 0.0577 µM | 1.02 µM | 1.58 µM |
| CUAGCGCAUGCAGGAUAUCUGGUGUAUGCCUCGAGAUAACAUGAGGAUCACCCAUGUCCGCUCAAAGAGAAGGGCAUGCAAAUG [Eternabot solution 8] (Eterna round: R96, puzzle: Same State NG 2) | 1.18 µM | 0.177 µM | 0.618 µM |  |  |  |
| GAGUAGGACUUACAGGAUAUAUGGAGGUUGACAUGAGGAUCACCCAUGUCUGAGUUGAGAGGAGGAUAGAAGGGUAUGGGAGGCG [JR_SS2_Sub030] (puzzle: Same State 2) |  |  |  | 0.0234 µM | 0.0165 µM | 0.0224 µM |
| AGUCCAGCGAAAGCUGGACAAAGACAUGUACAUGAGGAUCACCCAUGUCAUGUACAAGUUUUUUGCUCGUCUUAUAA (puzzle: Sensor for hsa-mir-208a) |  |  |  | 0.0344 µM | 0.0127 µM | 0.0358 µM |
| UUAAUUUACUGAGGAUAUCGUGUCGACUGAGUUGACAUGAGGAUCACCCAUGUGAGAAGUGGUAUCGAGAAGGCAGUUUUCAUA [JR_SSNG2_Sub024] (Eterna round: R96, puzzle: Same State NG 2) | 0.0173 µM | 0.059 µM | 0.0896 µM |  |  |  |
| CCAGCUUCGGCAGGAUAUGGCGCGCCACUACGCCCAGAAGGGCCGGAAGAUACUACAACCACUACAUGAGGAUCACCCAUGUCA [Eternabot solution 1] (Eterna round: R96, puzzle: Same State NG 1) | 0.0307 µM | 0.00579 µM | 0.0668 µM |  |  |  |
| UAGUGCUGUUGAGAGGAUAUGCGGCGACGGACAUGAGGAUCACCCAUGUUAGCGACAGCGUUGCGGCAGAAGGCUCUGCCCGCUA [Soteed Omei mod 52] (puzzle: Same State 2) |  |  |  | 0.0131 µM | 0.0274 µM | 0.0333 µM |
| UAGAUUAGAAGUUAACAUGAGGAUCACCCAUGUAUUGGAACAGAGGAUAUGCAUGUUUGAUAGUAGCAGAAGGCUGAAGGUGGA [JR_SSNG3_Sub025] (Eterna round: R96, puzzle: Same State NG 3) |  | 0.0684 µM |  |  |  |  |
| UAGACAAGCUUUAUGUUCUUCCUUUUCCUACAUGAGGAUCACCCAUGUAGUCUGUCGAUUGAGAGAGUAGUUGAGAA [JR_SHM208A_Sub024] (puzzle: Sensor for hsa-mir-208a) |  |  |  | 0.0178 µM | 0.0165 µM | 0.0182 µM |
| AACAAUCUAUCUGAGGAUAUCAUGAAAUAAACAUGAGGAUCACCCAUGUGCAGGAAAACUGCAUAUGAGAAGGCAGAUAGAUUUA [salish99_ss2_r3_057] (puzzle: Same State 2) |  |  |  | 0.0438 µM | 0.638 µM | 1 µM |
| CCAUGGUAACAUGAGGAUCACCCAUGUACAAGCUUUUUGCUCGUCUUACCCGGCGCGCCCAUUAUGGGCGCGCCGGG [Nishu_Seq3] (puzzle: Sensor for hsa-mir-208a version 2) |  |  |  | 0.0411 µM | 0.0454 µM | 0.0325 µM |
| GGCCAGAGUCAAGGAUAUGCUACCGUUUCGGUAGCAGAAGGUGAUCACAUGAGGAUCACCCAUGUAUACGCUGGGAAGCGGGCC [JL SSNG1 3.65] (Eterna round: R96, puzzle: Same State NG 1) | 0.163 µM | 0.155 µM | 0.119 µM |  |  |  |
| UCUUGGUUUUUGCUCGUUUUUUGUGUUGAACAUGAGGAUCACCCAUGUAUUGUACAAUCCGGUUUGAUGAUGGUCCA [JMF 47] (puzzle: Sensor for hsa-mir-208a) |  |  |  | 0.0817 µM | 0.0583 µM | 0.0923 µM |
| UUUAGUUGCGGGCAGGAUAUGUAUUAAUAUACAUGAGGAUCACCCAUGUGCGGGUAUAACACCCGACAGAAGGGCCAAUCGCGAC [Laonerce - 5] (puzzle: Same State 2) |  |  |  | 0.0283 µM | 0.302 µM | 0.389 µM |
| AGACACAUGAGGAUCACCCAUGUUACGAGCUUAGCUCGGACACAGGAUAUCCGGUCCUAGAGACCGGAGAAGGGUGCCUGAUAA [Zara MOD3] (Eterna round: R96, puzzle: Same State NG 3) | 0.568 µM | 0.678 µM | 0.765 µM |  |  |  |
| CCGAUGCAAAUAAAACAUGAGGAUCACCCAUGUGAGACACAUGAGGAUAUGCAGGUCAAAGACUUGCAGAAGGCAUAGCGUCGG [JL SSNG3 3.87] (Eterna round: R96, puzzle: Same State NG 3) | 0.0241 µM | 0.227 µM | 0.27 µM |  |  |  |
| UGGUACAUGCGAGGAUAUGGGUUGAUGACAUGAGGAUCACCCAUGUUAAAUAUGCCGAGAGGCACCUAGAAGGCGCAUGUACCU [MOD2 of JL SSNG1 3.99] (Eterna round: R96, puzzle: Same State NG 2) | 0.0104 µM | 0.023 µM | 0.0369 µM |  |  |  |
